Ends that are not written are not given here.
B1: C2 (peptide)
peptide: KKQVLAMEHLVT
modifications: not fully specified
B2: VEPEP-3a (peptide)
peptide: XKWFERWFREWPRKRR
HELM: PEPTIDE1{[ac].[bAla].K.W.F.E.R.W.F.R.E.W.P.R.K.R.R.[SCCN[*:1]]}$$$$V2.0
SMILES: CC(=O)NCCC(=O)N[C@@H](CCCCN)C(=O)N[C@@H](Cc1c[nH]c2ccccc12)C(=O)N[C@@H](Cc1ccccc1)C(=O)N[C@@H](CCC(=O)O)C(=O)N[C@@H](CCCNC(=N)N)C(=O)N[C@@H](Cc1c[nH]c2ccccc12)C(=O)N[C@@H](Cc1ccccc1)C(=O)N[C@@H](CCCNC(=N)N)C(=O)N[C@@H](CCC(=O)O)C(=O)N[C@@H](Cc1c[nH]c2ccccc12)C(=O)N1CCC[C@H]1C(=O)N[C@@H](CCCNC(=N)N)C(=O)N[C@@H](CCCCN)C(=O)N[C@@H](CCCNC(=N)N)C(=O)N[C@@H](CCCNC(=N)N)C(=O)NCCS
notes: Synthetic cell-penetrating peptide
B3: C4 (peptide)
peptide: KKQVRMAHLVLT
modifications: not fully specified
B4: PC4, also noted PC4D (peptide)
peptide: RWTEWEWW
modifications: also: cyclic version, linkage not given here

Experiments:
HIV integrase = HIV integrase (HIV-1-LAI, UniProt P03367 1160-1447); test: cell-based or functional assay
cdk2/cyclin A complex = cdk2/cyclin A complex (UniProt P24941 1-298; P20248 1-432); test: cell-based or functional assay
C4 = target: B3; test: fluorescence titration, curve fitting
PC4, also noted PC4D = target: B4; test: fluorescence titration, curve fitting
C2 = target: B1; test: fluorescence titration, curve fitting
CDK4/cyclin D complex = CDK4/cyclin D complex (UniProt P11802 2-303); test: cell-based or functional assay
CDK4/cyclin D complex, sequence (P11802 2-303, one chain of several): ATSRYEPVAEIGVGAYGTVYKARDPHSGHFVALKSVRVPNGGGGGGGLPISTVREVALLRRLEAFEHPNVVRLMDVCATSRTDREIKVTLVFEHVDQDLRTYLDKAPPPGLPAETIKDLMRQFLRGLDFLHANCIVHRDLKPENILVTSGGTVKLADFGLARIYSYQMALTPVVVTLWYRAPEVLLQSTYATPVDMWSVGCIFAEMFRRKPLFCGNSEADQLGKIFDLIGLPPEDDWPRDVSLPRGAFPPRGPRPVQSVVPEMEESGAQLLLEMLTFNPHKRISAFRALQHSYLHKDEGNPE

## KWETWWET [PC6, also noted PC6D]
HIV integrase
  IC50, antiviral activity (RT activity in supernatants of HIV-1 LAI infected PBMC), peptide with VEPEP-3 carrier: 0.09 nM

## B1
cdk2/cyclin A complex
  IC50, proliferation of HEK-2 cells (C2 delivered by VEPEP-3): 102 nM
  IC50, proliferation of Hela cells (C2 delivered by VEPEP-3): 37 nM

## B2
C4
  binding result: binds
PC4, also noted PC4D
  Kd: 50 to 100 nM
C2
  binding result: binds

## B3
CDK4/cyclin D complex
  IC50, proliferation of HEK-2 cells (C4 delivered by VEPEP-3): 78 nM
  IC50, proliferation of Hela cells (C4 delivered by VEPEP-3): 35 nM
  IC50, proliferation of MCF7 cells (C4 delivered by VEPEP-3): 58 nM

## B4
HIV integrase
  IC50, antiviral activity (RT activity in supernatants of HIV-1 LAI infected PBMC), peptide with VEPEP-3 carrier: 0.12 nM

Reference: patent US20190046652A1 (AADIGEN, published 2019)
